Measurements from patent US9284543B2, “Neutral active soluble truncated PH20 polypeptides and uses thereof” (Halozyme, Inc., priority 2008, dated 2016).

B1: SPAM1-METE: C-terminally truncated human PH20, precursor 476 aa (SEQ ID NO:24), mature 441 aa (SEQ ID NO:76) (protein, listed as Homo sapiens)
chain 1: MGVLKFKHIFFRSFVKSSGVSQIVFTFLLIPCCLTLNFRAPPVIPNVPFLWAWNAPSEFCLGKFDEPLDMSLFSFIGSPRINATGQGVTIFYVDRLGYYPYIDSITGVTVNGGIPQKISLQDHLDKAKKDITFYMPVDNLGMAVIDWEEWRPTWARNWKPKDVYKNRSIELVQQQNVQLSLTEATEKAKQEFEKAGKDFLVETIKLGKLLRPNHLWGYYLFPDCYNHHYKKPGYNGSCFNVEIKRNDDLSWLWNESTALYPSIYLNTQQSPVAATLYVRNRVREAIRVSKIPDAKSPLPVFAYTRIVFTDQVLKFLSQDELVYTFGETVALGASGIVIWGTLSIMRSMKSCLLLDNYMETILNPYIINVTLAAKMCSQVLCQEQGVCIRKNWNSSDYLHLNPDNFAIQLEKGGKFTVRGKPTLEDLEQFSEKFYCSCYSTLSCKEKADVKDTDAVDVCIADGVCIDAFLKPPMETE
chain 2: LNFRAPPVIPNVPFLWAWNAPSEFCLGKFDEPLDMSLFSFIGSPRINATGQGVTIFYVDRLGYYPYIDSITGVTVNGGIPQKISLQDHLDKAKKDITFYMPVDNLGMAVIDWEEWRPTWARNWKPKDVYKNRSIELVQQQNVQLSLTEATEKAKQEFEKAGKDFLVETIKLGKLLRPNHLWGYYLFPDCYNHHYKKPGYNGSCFNVEIKRNDDLSWLWNESTALYPSIYLNTQQSPVAATLYVRNRVREAIRVSKIPDAKSPLPVFAYTRIVFTDQVLKFLSQDELVYTFGETVALGASGIVIWGTLSIMRSMKSCLLLDNYMETILNPYIINVTLAAKMCSQVLCQEQGVCIRKNWNSSDYLHLNPDNFAIQLEKGGKFTVRGKPTLEDLEQFSEKFYCSCYSTLSCKEKADVKDTDAVDVCIADGVCIDAFLKPPMETE
modifications: HuPH20 precursor 1-476; Mature HuPH20 36-476
B2: SPAM1-ETEE: C-terminally truncated human PH20, precursor 477 aa (SEQ ID NO:23), mature 442 aa (SEQ ID NO:75) (protein, listed as Homo sapiens)
chain 1: MGVLKFKHIFFRSFVKSSGVSQIVFTFLLIPCCLTLNFRAPPVIPNVPFLWAWNAPSEFCLGKFDEPLDMSLFSFIGSPRINATGQGVTIFYVDRLGYYPYIDSITGVTVNGGIPQKISLQDHLDKAKKDITFYMPVDNLGMAVIDWEEWRPTWARNWKPKDVYKNRSIELVQQQNVQLSLTEATEKAKQEFEKAGKDFLVETIKLGKLLRPNHLWGYYLFPDCYNHHYKKPGYNGSCFNVEIKRNDDLSWLWNESTALYPSIYLNTQQSPVAATLYVRNRVREAIRVSKIPDAKSPLPVFAYTRIVFTDQVLKFLSQDELVYTFGETVALGASGIVIWGTLSIMRSMKSCLLLDNYMETILNPYIINVTLAAKMCSQVLCQEQGVCIRKNWNSSDYLHLNPDNFAIQLEKGGKFTVRGKPTLEDLEQFSEKFYCSCYSTLSCKEKADVKDTDAVDVCIADGVCIDAFLKPPMETEE
chain 2: LNFRAPPVIPNVPFLWAWNAPSEFCLGKFDEPLDMSLFSFIGSPRINATGQGVTIFYVDRLGYYPYIDSITGVTVNGGIPQKISLQDHLDKAKKDITFYMPVDNLGMAVIDWEEWRPTWARNWKPKDVYKNRSIELVQQQNVQLSLTEATEKAKQEFEKAGKDFLVETIKLGKLLRPNHLWGYYLFPDCYNHHYKKPGYNGSCFNVEIKRNDDLSWLWNESTALYPSIYLNTQQSPVAATLYVRNRVREAIRVSKIPDAKSPLPVFAYTRIVFTDQVLKFLSQDELVYTFGETVALGASGIVIWGTLSIMRSMKSCLLLDNYMETILNPYIINVTLAAKMCSQVLCQEQGVCIRKNWNSSDYLHLNPDNFAIQLEKGGKFTVRGKPTLEDLEQFSEKFYCSCYSTLSCKEKADVKDTDAVDVCIADGVCIDAFLKPPMETEE
modifications: HuPH20 precursor 1-477; Mature HuPH20 36-477

Key:
[1] = Microtiter hyaluronidase activity assay with biotinylated-hyaluronic acid; format: biochemical; details: Table 6, 72 hour post transfection supernatant
CHO-S cells = test: Western blot analysis of PH20 expression in media and cells after transient expression; format: cell-based, Chinese Hamster; details: media versus cells
Summary of the method: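 PH20 expression and solubility were judged by anti-PH20 Western blot of non-reduced media and cell fractions, with expression shown by a ~66 kDa band. Samples came from CHO-S cells transiently transfected (GeneJuice) with mutant PH20-HZ24 DNA and cultured 48-72 h. GPI-anchored mutants were cleaved with PI-PLC to release soluble protein.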

Molecule	pH 5.5 Activity [1] [Units/ml]	pH 7.4 Activity [1] [Units/ml]	Expressed in Media (CHO-S cells)
B1	1.278	1.332	YES
B2	2.0475	2.088	YES
